From paper PMC9949068 (bioRxiv, 2023) come the findings set out here.

The data set “cryo-EM structure” concerns the molecule itself. The data set can be described thus: cryo-EM structure.
The data set “negative stain EM” deals with the molecule itself. The data set can be described thus: negative stain EM.

B1: human GLS2 (K253A), residues 38-602 (enzyme)
chain: HHLSEAAAQGRETPHSHQPQHQDHDSSESGMLSRLGDLLFYTIAEGQERIPIHKFTTALKATGLQTSDPRLRDCMSEMHRVVQESSSGGLLDRDLFRKCVSSNIVLLTQAFRKKFVIPDFEEFTGHVDRIFEDVKELTGGKVAAYIPQLAKSNPDLWGVSLCTVDGQRHSVGHTKIPFCLQSCVKPLTYAISISTLGTDYVHKFVGKEPSGLRYNALSLNEEGIPHNPMVNAGAIVVSSLIKMDCNKAEKFDFVLQYLNKMAGNEYMGFSNATFQSEKETGDRNYAIGYYLKEKKCFPKGVDMMAALDLYFQLCSVEVTCESGSVMAATLANGGICPITGESVLSAEAVRNTLSLMHSCGMYDFSGQFAFHVGLPAKSAVSGAILLVVPNVMGMMCLSPPLDKLGNSHRGTSFCQKLVSLFNFHNYDNLRHCARKLDPRREGAEIRNKTVVNLLFAAYSGDVSALRRFALSAMDMEQKDYDSRTALHVAAAEGHIEVVKFLIEACKVNPFAKDRWGNIPLDDAVQFNHLEVVKLLQDYQDSYTLSETQAEAAAEALSKENLESMV
Turning to B1, in “cryo-EM structure”, the binding result is “binds”.

B2: human GLS2 (N308A), residues 38-602 (enzyme)
chain: HHLSEAAAQGRETPHSHQPQHQDHDSSESGMLSRLGDLLFYTIAEGQERIPIHKFTTALKATGLQTSDPRLRDCMSEMHRVVQESSSGGLLDRDLFRKCVSSNIVLLTQAFRKKFVIPDFEEFTGHVDRIFEDVKELTGGKVAAYIPQLAKSNPDLWGVSLCTVDGQRHSVGHTKIPFCLQSCVKPLTYAISISTLGTDYVHKFVGKEPSGLRYNKLSLNEEGIPHNPMVNAGAIVVSSLIKMDCNKAEKFDFVLQYLNKMAGNEYMGFSAATFQSEKETGDRNYAIGYYLKEKKCFPKGVDMMAALDLYFQLCSVEVTCESGSVMAATLANGGICPITGESVLSAEAVRNTLSLMHSCGMYDFSGQFAFHVGLPAKSAVSGAILLVVPNVMGMMCLSPPLDKLGNSHRGTSFCQKLVSLFNFHNYDNLRHCARKLDPRREGAEIRNKTVVNLLFAAYSGDVSALRRFALSAMDMEQKDYDSRTALHVAAAEGHIEVVKFLIEACKVNPFAKDRWGNIPLDDAVQFNHLEVVKLLQDYQDSYTLSETQAEAAAEALSKENLESMV
Regarding B2, the binding result in “negative stain EM” is “binds”.
